Measurements as given in US20250163167A1 (SYNTHEKINE, published 2025).

Target: T1, human IL-10 receptor (hIL-10R alpha and beta chains) on HEK-Blue IL-10 reporter cells (human, UniProt Q13651 22-578; Q08334 20-325)
T1 sequence 1: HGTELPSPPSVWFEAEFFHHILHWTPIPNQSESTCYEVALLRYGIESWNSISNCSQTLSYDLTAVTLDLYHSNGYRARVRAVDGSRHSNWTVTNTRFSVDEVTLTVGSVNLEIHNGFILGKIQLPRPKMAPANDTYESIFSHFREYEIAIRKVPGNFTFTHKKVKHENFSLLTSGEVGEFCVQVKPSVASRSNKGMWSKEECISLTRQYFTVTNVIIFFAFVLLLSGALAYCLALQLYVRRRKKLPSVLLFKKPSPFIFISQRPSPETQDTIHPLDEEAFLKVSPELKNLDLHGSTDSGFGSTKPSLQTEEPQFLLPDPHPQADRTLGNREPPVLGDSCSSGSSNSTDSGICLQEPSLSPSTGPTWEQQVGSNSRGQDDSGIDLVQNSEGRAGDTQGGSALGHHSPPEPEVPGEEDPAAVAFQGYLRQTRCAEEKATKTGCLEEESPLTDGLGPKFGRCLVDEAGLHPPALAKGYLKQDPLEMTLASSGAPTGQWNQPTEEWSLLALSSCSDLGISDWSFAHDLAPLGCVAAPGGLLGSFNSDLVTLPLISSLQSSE
T1 sequence 2: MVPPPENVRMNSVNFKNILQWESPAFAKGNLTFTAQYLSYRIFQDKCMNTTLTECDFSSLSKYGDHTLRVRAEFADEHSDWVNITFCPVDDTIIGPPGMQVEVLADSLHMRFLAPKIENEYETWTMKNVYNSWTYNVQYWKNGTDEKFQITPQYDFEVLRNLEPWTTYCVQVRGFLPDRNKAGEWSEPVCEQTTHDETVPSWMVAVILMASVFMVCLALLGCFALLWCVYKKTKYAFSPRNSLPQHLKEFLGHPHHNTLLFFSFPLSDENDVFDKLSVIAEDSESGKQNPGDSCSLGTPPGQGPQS
Test: cell-based or functional assay

B1: IL10R binding molecule of SEQ ID NO: 274 (bispecific antibody)
chain: QVQLQESGGGSVQAGGSLRLSCAASGYTYSMYCMGWFRQAPGKEREGVAQINSDGSTSYADSVKGRFTISKDNAKNTLYLQMNSLKPEDTAMYYCAADSRVYGGSWYERLCGPYTYEYNYWGQGTQVTVSSGGGSQVQLQESGGGSVEAGGSLRLSCAASGYTHSSYCMGWFRQAPGKEREGVAAIDVDGSTTYADSVKGRFTISKDNAKNTLYLQMNSLKPEDTGMYYCAAEFADCSSNYFLPPGAVRYWGQGTQVTVSSASHHHHHH
Abs 630 (25 nM): 0.46 Abs 630 | Abs 630 (100 nM): 0.37 Abs 630

B2: IL10R binding molecule of SEQ ID NO: 277 (bispecific antibody)
chain: QVQLQESGGGSVQAGGSLRLSCAVSGYAYSTYCMGWFRQAPGKEREGVAAIDSGGSTSYADSVKGRFTISKDNAKNTLYLRMNSLKPEDTAMYYCAAVPPPPDGGSCLFLGPEIKVSKADFRYWGQGTQVTVSSGGGSQVQLQESGGGSVQAGGSLRLSCAASGYTYSSGCMGWFRQAPGKEREAVAAINSDGSTSYADSVKGRFTISKDNAKNTLYLQMNSLKPEDTAMYYCAAEPYCSGGYPRWSVAEFGYWGQGTQVTVSSASHHHHHH
Abs 630 (25 nM): 1.19 Abs 630 | Abs 630 (100 nM): 1 Abs 630

B3: IL10R binding molecule of SEQ ID NO: 269 (bispecific antibody)
chain: QVQLQESGGGSVQAGGSLRLSCAASRFTYSSYCMGWFRQAPGKEREGVASIDSDGSTSYTDSVKGRFTISKDNAKNTLYLQMNSLKPEDTAMYYCALDLMSTVVPGFCGFLLSAGMDYWGKGTQVTVSSGGGSQVQLQESGGGSVQTGGSLRLSCAASGYTYLRGCMGWFRQAPGKEREGVAVMDVVGDRRSYIDSVKGRFTISRDNAANSVYLQMDNLKPEDTAMYYCTAGPNCVGWRSGLDYWGQGTQVTVSSASHHHHHH
Abs 630 (25 nM): 0.46 Abs 630 | Abs 630 (100 nM): 0.37 Abs 630

B4: IL10R binding molecule of SEQ ID NO: 271 (bispecific antibody)
chain: QVQLQESGGGSVQAGGSLRLSCAASGYTYSMYCMGWFRQAPGKEREGVAQINSDGSTSYADSVKGRFTISKDNAKNTLYLQMNSLKPEDTAMYYCAADSRVYGGSWYERLCGPYTYEYNYWGQGTQVTVSSGGGSQVQLQESGGGSVQAGGSLRLSCAASGYTYSSYCMGWFRQAPGKEREGVAHIDSDGSTSYADSVKGRFTISKDNAKNTLYLQMNSLKPEDTAMYYCAADPIPGPGYCDGGPNKYWGQGTQVTVSSASHHHHHH
Abs 630 (25 nM): 1.93 Abs 630 | Abs 630 (100 nM): 1.65 Abs 630

B5: IL10R binding molecule of SEQ ID NO: 276 (bispecific antibody)
chain: QVQLQESGGGSVQAGGSLRLSCAASGYTYSMYCMGWFRQAPGKEREGVAQINSDGSTSYADSVKGRFTISKDNAKNTLYLQMNSLKPEDTAMYYCAADSRVYGGSWYERLCGPYTYEYNYWGQGTQVTVSSGGGSQVQLQESGGGSVQTGGSLRLSCAASGYTYLRGCMGWFRQAPGKEREGVAVMDVVGDRRSYIDSVKGRFTISRDNAANSVYLQMDNLKPEDTAMYYCTAGPNCVGWRSGLDYWGQGTQVTVSSASHHHHHH
Abs 630 (25 nM): 0.46 Abs 630 | Abs 630 (100 nM): 0.36 Abs 630

B6: IL10R binding molecule of SEQ ID NO: 270 (bispecific antibody)
chain: QVQLQESGGGSVQAGGSLRLSCAASGYTYSMYCMGWFRQAPGKEREGVAQINSDGSTSYADSVKGRFTISKDNAKNTLYLQMNSLKPEDTAMYYCAADSRVYGGSWYERLCGPYTYEYNYWGQGTQVTVSSGGGSQVQLQESGGGSVQAGGSLRLSCAASGYTYSSGCMGWFRQAPGKEREAVAAINSDGSTSYADSVKGRFTISKDNAKNTLYLQMNSLKPEDTAMYYCAAEPYCSGGYPRWSVAEFGYWGQGTQVTVSSASHHHHHH
Abs 630 (25 nM): 1.41 Abs 630 | Abs 630 (100 nM): 0.73 Abs 630

B7: IL10R binding molecule of SEQ ID NO: 278 (bispecific antibody)
chain: QVQLQESGGGSVQAGGSLRLSCAVSGYAYSTYCMGWFRQAPGKEREGVAAIDSGGSTSYADSVKGRFTISKDNAKNTLYLRMNSLKPEDTAMYYCAAVPPPPDGGSCLFLGPEIKVSKADFRYWGQGTQVTVSSGGGSQVQLQESGGGSVQAGGSLRLSCAASGYTYSSYCMGWFRQAPGKEREGVAHIDSDGSTSYADSVKGRFTISKDNAKNTLYLQMNSLKPEDTAMYYCAADPIPGPGYCDGGPNKYWGQGTQVTVSSASHHHHHH
Abs 630 (25 nM): 1.61 Abs 630 | Abs 630 (100 nM): 1.18 Abs 630

B8: IL10R binding molecule of SEQ ID NO: 273 (bispecific antibody)
chain: QVQLQESGGGSVQAGGSLRLSCAASGYTYSMYCMGWFRQAPGKEREGVAQINSDGSTSYADSVKGRFTISKDNAKNTLYLQMNSLKPEDTAMYYCAADSRVYGGSWYERLCGPYTYEYNYWGQGTQVTVSSGGGSQVQLQESGGGSVQAGGSLRLSCTVSRYTASVNYMGWFRQAPGKEREGVATIFTGAGTTYYANSVKGRFTISRDNAKNTAYLQMNSLKPEDTAIYYCAVDFRGGLLYRPAYEYTYRGQGTQVTVSSASHHHHHH
Abs 630 (25 nM): 0.52 Abs 630 | Abs 630 (100 nM): 0.41 Abs 630

B9: IL10R binding molecule of SEQ ID NO: 275 (bispecific antibody)
chain: QVQLQESGGGSVQAGGSLRLSCAASGYTYSMYCMGWFRQAPGKEREGVAQINSDGSTSYADSVKGRFTISKDNAKNTLYLQMNSLKPEDTAMYYCAADSRVYGGSWYERLCGPYTYEYNYWGQGTQVTVSSGGGSQVQLQESGGGSVQAGGSLRLSCAASGYSYSSYCMGWFRQAPGKEREGVATIDSDGMTRYADSVKGRFTISKDNAKNTLYLQMNSLKPEDTAMYYCAAPLYDCDSGAVGRNPPYWGQGTQVTVSSASHHHHHH
Abs 630 (25 nM): 0.51 Abs 630 | Abs 630 (100 nM): 0.36 Abs 630

B10: IL10R binding molecule of SEQ ID NO: 257 (bispecific antibody)
chain: QVQLQESGGGSVQAGGSLRLSCAASRYLYSIDYMAWFRQSPGKEREPVAVIYTASGATFYPDSVKGRFTISQDNAKMTVYLQMNSLKSEDTAMYYCAAVRKTDSYLFDAQSFTYWGQGTQVTVSSGGGSQVQLQESGGGSVQAGGSLRLSCAASGYTYSSYCMGWFRQAPGKEREGVAHIDSDGSTSYADSVKGRFTISKDNAKNTLYLQMNSLKPEDTAMYYCAADPIPGPGYCDGGPNKYWGQGTQVTVSSASHHHHHH
Abs 630 (25 nM): 0.45 Abs 630 | Abs 630 (100 nM): 0.36 Abs 630

B11: IL10R binding molecule of SEQ ID NO: 272 (bispecific antibody)
chain: QVQLQESGGGSVQAGGSLRLSCAASGYTYSMYCMGWFRQAPGKEREGVAQINSDGSTSYADSVKGRFTISKDNAKNTLYLQMNSLKPEDTAMYYCAADSRVYGGSWYERLCGPYTYEYNYWGQGTQVTVSSGGGSQVQLQESGGGSVQAGGSLRLSCAASRYTYNSYCMGWFRQAPGKEREGVATIDSDGMTRYADSVKGRFTISKDNAKNTLYLQMNSLKPEDTAMYYCAADADCTIAAMTTNPLGQGTQVTVSSASHHHHHH
Abs 630 (25 nM): 0.47 Abs 630 | Abs 630 (100 nM): 0.38 Abs 630

B12: IL10R binding molecule of SEQ ID NO: 256 (bispecific antibody)
chain: QVQLQESGGGSVQAGGSLRLSCAASRYLYSIDYMAWFRQSPGKEREPVAVIYTASGATFYPDSVKGRFTISQDNAKMTVYLQMNSLKSEDTAMYYCAAVRKTDSYLFDAQSFTYWGQGTQVTVSSGGGSQVQLQESGGGSVQAGGSLRLSCAASGYTYSSGCMGWFRQAPGKEREAVAAINSDGSTSYADSVKGRFTISKDNAKNTLYLQMNSLKPEDTAMYYCAAEPYCSGGYPRWSVAEFGYWGQGTQVTVSSASHHHHHH
Abs 630 (25 nM): 0.49 Abs 630 | Abs 630 (100 nM): 0.39 Abs 630

B13: IL10R binding molecule of SEQ ID NO: 279 (bispecific antibody)
chain: QVQLQESGGGSVQAGGSLRLSCAVSGYAYSTYCMGWFRQAPGKEREGVAAIDSGGSTSYADSVKGRFTISKDNAKNTLYLRMNSLKPEDTAMYYCAAVPPPPDGGSCLFLGPEIKVSKADFRYWGQGTQVTVSSGGGSQVQLQESGGGSVQAGGSLRLSCAASRYTYNSYCMGWFRQAPGKEREGVATIDSDGMTRYADSVKGRFTISKDNAKNTLYLQMNSLKPEDTAMYYCAADADCTIAAMTTNPLGQGTQVTVSSASHHHHHH
Abs 630 (25 nM): 0.49 Abs 630 | Abs 630 (100 nM): 0.39 Abs 630
